For orientation: Km means the concentration of substrate that gives half-maximal velocity.

One protein from paper PMC4578769, “Development of a Fluorescence-based Trypanosoma cruzi CYP51 Inhibition Assay for Effective Compound Triaging in Drug Discovery Programmes for Chagas Disease” (PLoS Neglected Tropical Diseases, 2015) can be followed below.

Substrate in this data set: N#Cc1cc2ccc(OCOCc3ccccc3)cc2oc1=O
Nature of the data set: Michaelis-Menten kinetic determination of BOMCC O-dealkylation. As to conditions: other: 37 pmoles/mL T. cruzi CYP51 enzyme, 25-250 μM BOMCC, 37°C. It counts as biochemical, Trypanosoma cruzi. How it is done: Incubations were pre-warmed at 37°C before addition of NADPH regenerating system. Production of CHC was measured at 1 minute intervals at 37°C (Exc 410 nm, Em 460 nm) for 10 minutes (Fig 3b). […] Assay conditions of 37 pmoles/mL of T. cruzi CYP51 in bactosomes and 100 μM BOMCC provided a good dynamic range of metabolism.

B1: T. cruzi CYP51 (Trypanosoma cruzi strain CL Brener) (protein)
chain: MFIEAIVLALTALILYSVYSVKSFNTTRPTDPPVYPVTVPFLGHIVQFGKNPLEFMQRCKRDLKSGVFTISIGGQRVTIVGDPHEHSRFFSPRNEILSPREVYTIMTPVFGEGVAYAAPYPRMREQLNFLAEELTIAKFQNFVPAIQHEVRKFMAENWKEDEGVINLLEDCGAMIINTACQCLFGEDLRKRLNARHFAQLLSKMESSLIPAAVFMPWLLRLPLPQSARCREARAELQKILGEIIVAREKEEASKDNNTSDLLGGLLKAVYRDGTRMSLHEVCGMIVAAMFAGQHTSTITTSWSMLHLMHPKNKKWLDKLHKEIDEFPAQLNYDNVMDEMPFAERCVRESIRRDPPLLMVMRMVKAEVKVGSYVVPKGDIIACSPLLSHHDEEAFPNPRLWDPERDEKVDGAFIGFGAGVHKCIGQKFALLQVKTILATAFREYDFQLLRDEVPDPDYHTMVVGPTLNQCLVKYTRKKKLPS
notes: ompA leader (N); host or cells: E. coli JM109 (membrane fraction, bactosomes)
Regarding B1, the Km is 191 ± 55 µM.
